B1: snake venom MIT1 (ligand)
chain: AVITGACERDLQCGKGTCCAVSLWIKSVRVCTPVGTSGEDCHPASHKIPFSGQRMHHTCPCAPNLACVQTSPKKFKCLSK
B2: human type ZAQ ligand mature peptide (type G, 86 amino acid residues) (ligand)
chain: AVITGACERDVQCGAGTCCAISLWLRGLRMCTPLGREGEECHPGSHKVPFFRKRKHHTCPCLPNLLCSRFPDGRYRCSMDLKNINF

Columns and labels:
[1] = target: human type ZAQ (G protein-conjugated receptor protein ZAQ) expressed on CHO cells (ZAQC-B1 cells) (human, UniProt Q8TCW9 1-393); experiment: cell-based or functional assay
human type ZAQ (G protein-conjugated receptor protein ZAQ) expressed on CHO cells (ZAQC-B1 cells), sequence (Q8TCW9 whole entry): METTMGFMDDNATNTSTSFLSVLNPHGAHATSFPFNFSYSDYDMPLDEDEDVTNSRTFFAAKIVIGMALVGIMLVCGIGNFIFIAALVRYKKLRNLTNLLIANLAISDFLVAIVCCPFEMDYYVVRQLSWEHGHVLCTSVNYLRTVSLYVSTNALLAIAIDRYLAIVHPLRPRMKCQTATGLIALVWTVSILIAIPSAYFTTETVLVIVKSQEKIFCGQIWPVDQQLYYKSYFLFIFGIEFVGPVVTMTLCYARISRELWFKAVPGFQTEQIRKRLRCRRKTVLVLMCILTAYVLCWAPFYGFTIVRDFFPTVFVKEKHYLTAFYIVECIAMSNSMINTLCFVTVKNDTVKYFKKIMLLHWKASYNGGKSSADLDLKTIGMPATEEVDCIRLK

[2] = target: human type I5E receptor expressed on CHO cells (I5E-4 cells) (human, UniProt Q8NFJ6 1-384); experiment: cell-based or functional assay
human type I5E receptor expressed on CHO cells (I5E-4 cells), sequence (Q8NFJ6 whole entry): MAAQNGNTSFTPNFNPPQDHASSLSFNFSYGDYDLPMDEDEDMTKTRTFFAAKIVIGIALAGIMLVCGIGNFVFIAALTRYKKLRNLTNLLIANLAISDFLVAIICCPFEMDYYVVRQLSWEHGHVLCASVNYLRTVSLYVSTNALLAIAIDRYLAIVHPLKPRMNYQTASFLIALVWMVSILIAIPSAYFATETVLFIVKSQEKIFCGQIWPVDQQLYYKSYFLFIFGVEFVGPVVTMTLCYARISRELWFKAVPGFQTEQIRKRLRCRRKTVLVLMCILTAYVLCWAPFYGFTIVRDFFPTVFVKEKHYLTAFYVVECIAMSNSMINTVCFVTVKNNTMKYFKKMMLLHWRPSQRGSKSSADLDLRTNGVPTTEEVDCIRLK

Binder	action to activate a ZAQ receptor, relative to the human type ZAQ ligand peptide (FLIPR) [1]	action to activate a human type I5E receptor, relative to the human type ZAQ ligand peptide (FLIPR) [2]	action to activate an I5E receptor, relative to the human type Bv8 peptide (FLIPR) [2]	EC50 of the increase of intracellular calcium concentration in ZAQ expression CHO cells (ZAQC-B1 cells), FLIPR [1] [pM]
B1	10 times greater than the human type ZAQ ligand peptide	~100 times greater than the human type ZAQ ligand peptide	10 times greater than the human type Bv8 peptide	
B2				96

— patent US20050176632A1 (published 2005)
